Measurements reported in patent publication US12397036B2, “Peptide exchange protein” (Cambridge Enterprise Limited, priority 2018, dated 2025).

Columns and labels:
Format in all cases: cell-based
[1] = target: T1, HLA-A2 on SKBR3 and MCF-7 cells (Homo sapiens, UniProt P04439, D140Y/D185E/D98H/E176V/E277Q/G131W/G231S/I119V/I121R/I166T/I218V/L300P/L318F/N151K/N90K/P208A/P217A/Q86G/Q94H/R138H/R169H/T345S); assay: YLL* peptide loading on breast cancer cell lines; conditions: for loading of antigenic peptide onto MCF-7 and SKBR3 cells: 100 nM protein, YLL* peptide
T1 construct: endogenous in cells; host or cells: SKBR3 and MCF-7
Procedure: (§1) Bar graphs show (B) the binding YLL* peptide and (C) the binding of TCR-like mAb reagent LMP-1 which recognises the EBV specific peptide YLL in the context of HLA-A2, when SKBR3 and MCF-7 cells were incubated with no peptide, peptide alone, or peptide in the presence of 100 nM soluble TAPBPR or 100 nM TAPBPR-Her2 antibody fusion protein.

HLA-A*68:02 = target: T2, HLA-A*68:02 (Homo sapiens, UniProt P04439, A269V/D140Y/D185E/E176V/E277Q/E87N/F33Y/G231S/I121R/I166T/I218V/L180W/L300P/L318F/N151K/P208A/P217A/Q86R/R138H/R169H/S129P/T345S/V36M); assay: ETV* peptide loading on HeLaM, HeLaM+Her2 and HeLaM^Her2KO cells; conditions: Her2-dependent; 10 nM peptide 15 min
T2 construct: HLA-A68 (MHC class I) expressed on HeLa; endogenous in cells; host or cells: HeLaM and derivatives (TAPBPR-KO with or without TAPBPR/tapasin constructs, +Her2, Her2-KO, +PDL1, pD-GFP); in some arms HeLaM-HLA-ABC-KO re-expressing HLA-A*68:02
Excerpt: Note, there is endogenous Her2 on HeLa.

[2] = target: T3, YLL/HLA-A2 complexes on SKBR3 and MCF-7 cells (Homo sapiens, UniProt P04439, D140Y/D185E/D98H/E176V/E277Q/G131W/G231S/I119V/I121R/I166T/I218V/L300P/L318F/N151K/N90K/P208A/P217A/Q86G/Q94H/R138H/R169H/T345S); assay: TCR-like mAb LMP-1 staining of breast cancer cell lines
T3 construct: endogenous in cells; host or cells: SKBR3 and MCF-7
Procedure: as §1

HLA-A2 = target: T4, HLA-A2 (Homo sapiens, UniProt P04439, D140Y/D185E/D98H/E176V/E277Q/G131W/G231S/I119V/I121R/I166T/I218V/L300P/L318F/N151K/N90K/P208A/P217A/Q86G/Q94H/R138H/R169H/T345S); assay: NLV* and YLL* viral peptide loading on HeLaM-ABC^KO cells -/+ HLA-A2; conditions: for loading of viral peptides NLV* and YLL* onto surface expressed HLA-A2: 10 nM peptide 15 min
T4 construct: expressed in transfected cells; host or cells: HeLaM-HLA-ABC-KO
Procedure: For the histograms in A & C 100 nM of the indicated recombinant TAPBPR protein was used. […] The TCR is specific for […] peptide presented on HLA-A2 molecules.

[3] = target: T5, HLA-A68 (MHC class I) expressed on HeLa cells (Homo sapiens, UniProt P04439, A269V/D140Y/D185E/E176V/E277Q/E87N/F33Y/G231S/I121R/I166T/I218V/L180W/L300P/L318F/N151K/P208A/P217A/Q86R/R138H/R169H/S129P/T345S/V36M); assay: ETV* peptide loading on HeLa cells by exogenous mouse TAPBPR
T5 construct: HLA-A68 (MHC class I) expressed on HeLa; endogenous in cells; host or cells: HeLaM and derivatives (TAPBPR-KO with or without TAPBPR/tapasin constructs, +Her2, Her2-KO, +PDL1, pD-GFP); in some arms HeLaM-HLA-ABC-KO re-expressing HLA-A*68:02

Molecule | loading of antigenic peptide onto MCF-7 and SKBR3 cells [1] | loading of antigenic peptide onto MCF-7 and SKBR3 cells ([1]; listed as TAPBPR-her 2 antibody fusion protein) | peptide loading on SKBR3 cell line ([1]; low MHC I expression) | loading of exogenous peptide ETV* onto surface of HeLaM cells (HLA-A*68:02) | YLL/HLA-A2 complexes accessible for TCR binding versus soluble TAPBPR+peptide or peptide alone [2] | binding of TCR-like mAb LMP-1 to treated cells ([2]; fusion protein and peptide) | peptide loading on cells lacking HLA-A, -B and -C expression (HLA-A2) | loading of viral peptides NLV* and YLL* onto surface expressed HLA-A2 (HLA-A2) | loading of viral peptides NLV* and YLL* onto surface expressed HLA-A2 (HLA-A2; listed as TAPBPR-Her2-svFc) | loading of ETVSK*QSNV (ETV*) to HLA-A68 [3] | peptide loading efficiency relative to human TAPBPR [3]
TAPBPR-Her2-scFv: recombinant TAPBPR fused to a scFv specific for Her2; SEQ ID NO: 8 (protein, TAPBPR-Her2scFv) MGTQEGWCLLLCLALSGAAETKPHPAEGQWRAVDVVLDCFLVKDGAHRGALASSEDRARASLVLKQVPVLDDGSLEDFTDFQGGTLAQDDPPIIFEASVDLVQIPQAEALLHADCSGKEVTCEISRYFLQMTETTVKTAAWFMANVQVSGGGPSISLVMKTPRVAKNEVLWHPTLNLPLSPQGTVRTAVEFQVMTQTQSLSFLLGSSASLDCGFSMAPGLDLISVEWRLQHKGRGQLVYSWTAGQGQAVRKGATLEPAQLGMARDASLTLPGLTIQDEGTYICQITTSLYRAQQIIQLNIQASPKVRLSLANEALLPTLICDIAGYYPLDVVVTWTREELGGSPAQVSGASFSSLRQSVAGTYSISSSLTAEPGSAGATYTCQVTHISLEEPLGASTQVVPPERRHVGGGGSGGGGSGGGGSTSADLGSRAMAQVQLVQSGAEVKKPGESLKISCKGSGYSFTSYWIAWVRQMPGKGLEYMGLIYPGDSDTKYSPSFQGQVTISVDKSVSTAYLQWSSLKPSDSAVYFCARHDVGYCSSSNCAKWPEYFQHWGQGTLVTVSSGGGGSGGGGSGGGGSQSVLTQPPSVSAAPGQKVTISCSGSSSNIGNNYVSWYQQLPGTAPKLLIYDHTNRPAGVPDRFSGSKSGTSASLAISGFRSEDEADYYCASWDYTLSGWVFGGGTKLTVLGAAAGGGGS | efficiently loads antigenic peptides onto both of these breast cancer cell lines | works extremely efficiently on both these breast cancer cell lines | efficient peptide loading | very efficient at loading exogenous peptide | significantly more YLL/HLA-A2 complexes were accessible for TCR binding | bound extremely well | no peptide loading was observed | could load fluorescent variants | shown to load viral peptides onto HeLa cells expressing HLA-A2 |  | 
mouse TAPBPR: exogenous luminal domains of mouse TAPBPR; SEQ ID NO: 22 (protein, luminal domains of mouse TAPBPR) DPPTAPTTAERQRQPTDIILDCFLVTEDRHRGAFASSGDRERALLVLKQVPVLDDGSLEGITDFQGSTETKQDSPVIFEASVDLVQIPQAEALLHADCSGKAVTCEISKYFLQARQEATFEKAHWFISNMQVSRGGPSVSMVMKTLRDAEVGAVRHPTLNLPLSAQGTVKTQVEFQVTSETQTLNHLLGSSVSLHCSFSMAPDLDLTGVEWRLQHKGSGQLVYSWKTGQGQAKRKGATLEPEELLRAGNASLTLPNLTLKDEGTYICQISTSLYQAQQIMPLNILAPPKVQLHLANKDPLPSLVCSIAGYYPLDVGVTWIREELGGIPAQVSGASFSSLRQSTMGTYSISSTVMADPGPTGATYTCQVAHVSLEEPLTTSMRVLPNPEQRGT |  |  |  |  |  |  |  |  |  | shown to load fluorescent human neoantigen peptide | less efficient than human TAPBPR
